In patent US20190134153A1, “IMMUNOMODULATORY EFFECT OF INHALED KINASE INHIBITOR PEPTIDES IN LUNG” (MOERAE MATRIX, INC., priority 2017, published 2019):

Legend:
Assay in all cases: Kinase Profiling Assay
Assay type in all cases: biochemical
Conditions in all cases: 100 μM
PhKγ2(h) = target: T1, PhKγ2(h) (Homo sapiens, UniProt P15735)
T1 sequence (P15735 1-406): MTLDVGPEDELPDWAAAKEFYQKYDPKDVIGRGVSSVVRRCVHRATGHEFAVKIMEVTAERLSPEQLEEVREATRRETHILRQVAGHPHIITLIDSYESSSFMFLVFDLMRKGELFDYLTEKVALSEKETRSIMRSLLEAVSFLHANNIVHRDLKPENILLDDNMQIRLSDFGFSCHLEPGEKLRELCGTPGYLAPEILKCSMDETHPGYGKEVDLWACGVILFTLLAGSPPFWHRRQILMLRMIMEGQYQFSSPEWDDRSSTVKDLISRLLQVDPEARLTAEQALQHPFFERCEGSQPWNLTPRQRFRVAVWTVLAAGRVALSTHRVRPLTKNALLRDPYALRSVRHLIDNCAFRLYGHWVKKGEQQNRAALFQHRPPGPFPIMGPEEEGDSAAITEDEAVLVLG

DYRK2(h) = target: T2, DYRK2(h) (Homo sapiens, UniProt Q92630)
T2 sequence (Q92630 1-601): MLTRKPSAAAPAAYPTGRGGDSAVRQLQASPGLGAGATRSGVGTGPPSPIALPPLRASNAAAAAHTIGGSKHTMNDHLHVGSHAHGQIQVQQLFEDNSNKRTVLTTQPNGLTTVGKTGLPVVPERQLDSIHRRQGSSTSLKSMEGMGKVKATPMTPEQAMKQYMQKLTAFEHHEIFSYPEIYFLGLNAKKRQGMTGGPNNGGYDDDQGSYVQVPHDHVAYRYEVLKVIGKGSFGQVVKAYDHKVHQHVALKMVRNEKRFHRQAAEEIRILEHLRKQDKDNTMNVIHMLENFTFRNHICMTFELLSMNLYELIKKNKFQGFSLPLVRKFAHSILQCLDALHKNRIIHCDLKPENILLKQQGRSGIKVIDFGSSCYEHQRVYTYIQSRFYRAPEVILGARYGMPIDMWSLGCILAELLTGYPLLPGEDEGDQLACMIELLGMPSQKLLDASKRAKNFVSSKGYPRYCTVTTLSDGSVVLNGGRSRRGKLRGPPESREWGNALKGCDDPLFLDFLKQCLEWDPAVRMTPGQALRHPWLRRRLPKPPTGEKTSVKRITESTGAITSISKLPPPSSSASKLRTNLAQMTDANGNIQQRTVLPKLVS

CSK(h) = CSK(h) (Homo sapiens, UniProt P41240)
TAO1(h) = target: T3, TAO1(h) (Homo sapiens, UniProt Q7L7X3)
T3 sequence (Q7L7X3 1-1001): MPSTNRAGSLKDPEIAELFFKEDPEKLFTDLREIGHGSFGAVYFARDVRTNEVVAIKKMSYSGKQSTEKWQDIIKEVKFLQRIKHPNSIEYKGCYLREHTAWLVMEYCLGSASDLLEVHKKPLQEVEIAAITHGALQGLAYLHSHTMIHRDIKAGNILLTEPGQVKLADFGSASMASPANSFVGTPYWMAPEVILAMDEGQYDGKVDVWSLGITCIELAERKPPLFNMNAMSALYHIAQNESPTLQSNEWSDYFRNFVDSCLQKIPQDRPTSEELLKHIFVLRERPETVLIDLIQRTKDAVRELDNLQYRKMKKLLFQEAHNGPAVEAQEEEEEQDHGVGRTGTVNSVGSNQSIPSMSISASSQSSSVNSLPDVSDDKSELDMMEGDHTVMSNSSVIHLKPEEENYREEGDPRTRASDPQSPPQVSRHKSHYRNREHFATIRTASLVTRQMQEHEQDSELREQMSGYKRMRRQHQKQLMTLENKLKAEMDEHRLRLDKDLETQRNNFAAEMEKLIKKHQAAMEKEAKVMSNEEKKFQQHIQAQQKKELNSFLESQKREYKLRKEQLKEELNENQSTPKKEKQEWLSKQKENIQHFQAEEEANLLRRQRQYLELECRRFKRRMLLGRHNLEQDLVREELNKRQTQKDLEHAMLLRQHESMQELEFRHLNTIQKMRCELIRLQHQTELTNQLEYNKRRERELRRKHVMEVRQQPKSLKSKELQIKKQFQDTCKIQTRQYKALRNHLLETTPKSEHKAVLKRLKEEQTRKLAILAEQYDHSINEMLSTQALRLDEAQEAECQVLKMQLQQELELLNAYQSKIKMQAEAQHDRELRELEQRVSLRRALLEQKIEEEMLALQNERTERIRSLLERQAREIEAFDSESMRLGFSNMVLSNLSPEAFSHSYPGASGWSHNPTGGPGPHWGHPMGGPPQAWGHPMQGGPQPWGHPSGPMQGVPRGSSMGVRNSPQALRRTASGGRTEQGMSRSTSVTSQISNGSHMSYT

PKG1α(h) = target: T4, PKG1α(h) (Homo sapiens, UniProt Q13976)
T4 sequence (Q13976 1-671): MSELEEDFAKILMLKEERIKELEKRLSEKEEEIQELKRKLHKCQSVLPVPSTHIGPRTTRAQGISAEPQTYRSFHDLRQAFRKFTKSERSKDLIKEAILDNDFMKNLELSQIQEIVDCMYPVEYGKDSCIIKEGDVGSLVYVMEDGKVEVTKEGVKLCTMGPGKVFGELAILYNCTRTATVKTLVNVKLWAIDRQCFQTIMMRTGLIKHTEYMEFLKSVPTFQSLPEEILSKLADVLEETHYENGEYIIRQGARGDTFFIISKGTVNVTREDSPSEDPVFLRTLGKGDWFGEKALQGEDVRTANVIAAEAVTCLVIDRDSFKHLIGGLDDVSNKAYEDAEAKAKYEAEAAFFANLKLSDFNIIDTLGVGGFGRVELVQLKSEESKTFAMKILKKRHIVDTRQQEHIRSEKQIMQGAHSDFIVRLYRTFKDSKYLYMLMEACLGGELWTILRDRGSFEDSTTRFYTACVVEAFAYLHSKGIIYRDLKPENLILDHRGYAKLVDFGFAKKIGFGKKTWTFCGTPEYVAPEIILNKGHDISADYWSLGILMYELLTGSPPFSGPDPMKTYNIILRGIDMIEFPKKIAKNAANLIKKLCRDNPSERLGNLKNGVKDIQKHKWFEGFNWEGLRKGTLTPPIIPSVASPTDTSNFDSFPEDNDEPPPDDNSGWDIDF

Fer(h) = Fer(h) (Homo sapiens, UniProt P16591)
CDK5/p35(h) = CDK5/p35(h) (Homo sapiens, UniProt Q00535)
Chain of CDK5/p35(h) (Q00535 whole entry): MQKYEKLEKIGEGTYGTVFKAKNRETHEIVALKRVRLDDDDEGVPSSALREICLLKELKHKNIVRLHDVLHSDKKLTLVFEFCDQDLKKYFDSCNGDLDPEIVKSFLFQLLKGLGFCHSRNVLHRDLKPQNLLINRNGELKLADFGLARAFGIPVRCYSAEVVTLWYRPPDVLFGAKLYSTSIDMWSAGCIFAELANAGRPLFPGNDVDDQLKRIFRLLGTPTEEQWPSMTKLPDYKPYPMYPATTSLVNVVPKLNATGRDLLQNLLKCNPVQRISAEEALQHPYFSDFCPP
Chain of CDK5/p35(h) (Q15078 whole entry partner): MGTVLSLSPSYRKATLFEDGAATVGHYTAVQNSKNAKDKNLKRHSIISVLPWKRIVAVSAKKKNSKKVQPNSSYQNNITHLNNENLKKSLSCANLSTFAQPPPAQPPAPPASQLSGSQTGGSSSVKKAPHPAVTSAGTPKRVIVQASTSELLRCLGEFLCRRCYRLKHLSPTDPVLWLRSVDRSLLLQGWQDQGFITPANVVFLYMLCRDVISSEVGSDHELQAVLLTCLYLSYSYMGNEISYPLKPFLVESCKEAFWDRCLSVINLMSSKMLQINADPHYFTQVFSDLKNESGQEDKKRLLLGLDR

Chain of Fer(h) (P16591 whole entry): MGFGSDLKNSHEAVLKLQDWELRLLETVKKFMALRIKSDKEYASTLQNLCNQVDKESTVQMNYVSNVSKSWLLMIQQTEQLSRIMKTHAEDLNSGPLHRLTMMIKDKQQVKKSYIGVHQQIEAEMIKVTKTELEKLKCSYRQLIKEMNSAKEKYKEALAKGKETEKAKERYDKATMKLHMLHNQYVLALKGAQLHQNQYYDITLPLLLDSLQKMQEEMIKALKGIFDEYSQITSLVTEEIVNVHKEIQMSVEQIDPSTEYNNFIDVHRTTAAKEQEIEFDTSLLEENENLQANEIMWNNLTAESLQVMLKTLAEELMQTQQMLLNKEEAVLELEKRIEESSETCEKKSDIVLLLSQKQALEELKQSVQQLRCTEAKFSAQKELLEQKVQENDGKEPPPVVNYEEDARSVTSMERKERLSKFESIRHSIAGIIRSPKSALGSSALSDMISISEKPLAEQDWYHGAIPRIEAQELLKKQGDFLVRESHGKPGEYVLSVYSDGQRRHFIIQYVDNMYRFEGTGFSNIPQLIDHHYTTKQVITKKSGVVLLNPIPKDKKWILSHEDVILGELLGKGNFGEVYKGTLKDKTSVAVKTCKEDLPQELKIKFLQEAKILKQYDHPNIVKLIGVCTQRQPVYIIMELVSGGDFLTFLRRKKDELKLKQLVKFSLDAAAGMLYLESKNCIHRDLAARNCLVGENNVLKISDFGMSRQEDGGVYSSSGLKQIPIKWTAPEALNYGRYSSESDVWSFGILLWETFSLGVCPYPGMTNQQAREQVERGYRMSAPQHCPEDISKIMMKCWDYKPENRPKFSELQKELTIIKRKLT
Chain of CSK(h) (P41240 whole entry): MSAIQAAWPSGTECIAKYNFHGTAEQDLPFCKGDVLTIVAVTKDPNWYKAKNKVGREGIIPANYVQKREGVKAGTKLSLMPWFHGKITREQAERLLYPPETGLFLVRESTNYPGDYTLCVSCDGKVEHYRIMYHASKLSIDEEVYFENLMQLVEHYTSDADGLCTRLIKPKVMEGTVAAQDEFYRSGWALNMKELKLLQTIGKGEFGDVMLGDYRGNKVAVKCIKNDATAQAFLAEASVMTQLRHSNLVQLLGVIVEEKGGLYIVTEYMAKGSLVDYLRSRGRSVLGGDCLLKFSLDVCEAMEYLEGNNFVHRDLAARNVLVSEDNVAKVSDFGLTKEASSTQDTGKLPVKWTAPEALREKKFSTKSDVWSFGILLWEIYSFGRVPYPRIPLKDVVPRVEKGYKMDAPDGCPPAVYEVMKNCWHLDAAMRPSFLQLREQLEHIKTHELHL

Sequence | % activity (PhKγ2(h)) | % activity (DYRK2(h)) | % activity (CSK(h)) | % activity (TAO1(h)) | % activity (PKG1α(h)) | % activity (Fer(h)) | % activity (CDK5/p35(h))
FAKLAARLYRKALARQLGVAA [MMI-0300] | 46% | 155% | 49% | 82% | 64% | 130% | 79%
KAFAKLAARLYRKALARQLGVAA [MMI-0400] | 38% | 195% | 16% | 73% | 58% | 108% | 76%
YARAAARQARAKALNRQLGVA [MMI-0200] | 86% | 142% | 33% |  | 70% | 101% | 92%
HRRIKAWLKKIKALARQLGVAA [MMI-0500] | 16% | 127% | 2% | 24% | 25% | 196% | 59%
